The assay concerns the target human LEPTIN receptor expressed in 293FT cells (human) (UniProt P48357).
Chain of UniProt P48357 (P48357 22-1165): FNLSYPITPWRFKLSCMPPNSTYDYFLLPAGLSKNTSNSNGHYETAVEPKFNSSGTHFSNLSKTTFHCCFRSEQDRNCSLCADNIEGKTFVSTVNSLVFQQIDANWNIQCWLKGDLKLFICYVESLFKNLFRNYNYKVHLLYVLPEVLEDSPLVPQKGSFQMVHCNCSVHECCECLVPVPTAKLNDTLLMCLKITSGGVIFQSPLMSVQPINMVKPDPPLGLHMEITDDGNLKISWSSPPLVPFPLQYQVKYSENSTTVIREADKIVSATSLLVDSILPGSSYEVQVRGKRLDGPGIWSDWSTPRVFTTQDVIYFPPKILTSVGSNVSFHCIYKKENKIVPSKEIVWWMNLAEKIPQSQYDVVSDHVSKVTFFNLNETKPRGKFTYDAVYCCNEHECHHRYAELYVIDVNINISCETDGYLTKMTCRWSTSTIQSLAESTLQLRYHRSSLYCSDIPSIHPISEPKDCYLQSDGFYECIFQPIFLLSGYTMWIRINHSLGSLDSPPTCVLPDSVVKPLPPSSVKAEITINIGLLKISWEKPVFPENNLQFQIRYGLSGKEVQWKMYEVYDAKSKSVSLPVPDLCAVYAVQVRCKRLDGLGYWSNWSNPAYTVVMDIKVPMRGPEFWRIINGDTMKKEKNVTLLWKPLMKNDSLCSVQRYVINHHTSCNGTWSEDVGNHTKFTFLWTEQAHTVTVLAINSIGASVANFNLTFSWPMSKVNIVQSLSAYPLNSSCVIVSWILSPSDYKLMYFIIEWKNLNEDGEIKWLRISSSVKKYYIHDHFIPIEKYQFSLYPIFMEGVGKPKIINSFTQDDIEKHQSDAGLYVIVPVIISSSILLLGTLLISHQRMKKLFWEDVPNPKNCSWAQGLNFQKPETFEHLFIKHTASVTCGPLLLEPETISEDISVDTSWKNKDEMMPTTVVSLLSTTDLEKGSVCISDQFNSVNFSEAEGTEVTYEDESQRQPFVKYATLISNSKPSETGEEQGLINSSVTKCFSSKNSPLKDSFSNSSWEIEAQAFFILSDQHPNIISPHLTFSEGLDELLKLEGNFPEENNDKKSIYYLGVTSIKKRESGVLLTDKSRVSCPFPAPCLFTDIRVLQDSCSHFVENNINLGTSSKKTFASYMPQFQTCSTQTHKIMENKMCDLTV

“recombinant rat LEPTIN, wild type (from UniProt P50596 22-167) (ligand)”: the STAT3 luciferase reporter (pGL6-Stat3, normalised to renilla) in 293FT cells transfected with LEPR, treated with different concentrations of recombinant LEP; EC50 of activation is 3e-09 M.
